Experimental findings from US20240180856A1, “COMPOSITIONS, […] SYSTEMS, AND METHODS USEFUL IN TUMOR […]” (published 2024) are described below.

Positions of bridges follow the written chain, without caps; N, C: chain ends. Non-standard residues stand in square brackets, D forms with d. Groups on a side chain read outwards from the residue. Primed or numbered codes have the meaning given here. No end group written: not given here. *: point of attachment. DOTA = O=C(O)CN1CCN(CC(=O)O)CCN(CC(=O)*)CCN(CC(=O)O)CC1; Biotin = O=C1N[C@H]2[C@H](CS[C@H]2CCCCC(=O)*)N1; Butanoyl(4-(4-I-phenyl)) = O=C(CCCc1ccc(I)cc1)*; Butanoyl(4-(4-MePh)) = Cc1ccc(CCCC(=O)*)cc1; Lys(N3) = [N-]=[N+]=NCCCC[C@H](N)C(=O)O; FB = fluorobenzaldehyde oxime; PEG10′ = PEG spacer, 10 units; PEG3′ = PEG spacer, 3 units; PEG7′ = PEG linker, 7 units; AO = aminooxy group, NO*; Pra = C#CC[C@H](N)C(=O)O A value given as a limit tells only on which side of the number the result lay.

Assay [1] has as its target human plasma proteins. Briefly: plasma protein binding, equilibrium dialysis, LC-MS/MS; control.
In assay [2] the target is CD-1 mouse plasma proteins. Described as above.
In assay [3] the target is His-tagged FOLR1 human recombinant protein (11241-H08H, SinoBiological) (human) (UniProt P15328). Briefly: ELISA, against folate as reference. (In an ELISA, binding on a coated surface is turned into a signal by an enzyme label.)
Assay [4] has as its target mouse recombinant FOLR1 (rMuFOLR1) (mouse, UniProt P35846). Kind of assay: ELISA.
Assay [5] addresses His-tagged FOLR1 human recombinant protein (11241-H08H, SinoBiological) (human) (UniProt P15328). Briefly: ELISA.
For assay [6] the target is unchanged. Briefly: ELISA, linker screen.
The target is the same in assay [7]. Kind of assay: ELISA. This is another data set of the same source.
Assay [8] concerns the target FOLR1 on OVCAR3 cells (human ovarian adenocarcinoma, FOLR1 (+) cell line) (human) (UniProt P15328). Briefly: flow cytometry on OVCAR3 cells, with 0.1 µg/mL free folate as competitor.
For assay [9] the target is unchanged. Kind of assay: flow cytometry on OVCAR3 cells, no folate.
Assay [10] deals with human plasma proteins. Kind of assay: plasma protein binding, equilibrium dialysis, LC-MS/MS. On the technique in general: In equilibrium dialysis free small molecules cross a membrane that holds back macromolecules.
Assay [11] has as its target CD-1 mouse plasma proteins. Described as above.
Assay [12] addresses human plasma proteins. Kind of assay: plasma protein binding; value marked (FB).
For assay [13], the target named is CD-1 mouse plasma proteins. Kind of assay: plasma protein binding; value marked (FB).
Assay [14] addresses FOLR1 on OVCAR3 cells (human ovarian adenocarcinoma, FOLR1 (+) cell line) (human) (UniProt P15328).

With Octreotide Acetate (peptide), the Plasma % Bound in the assay with human plasma proteins [1] is 59.4%; in assay [2] it was 62.4%. The term EC50 denotes the concentration giving half of the maximal effect. Fol-[dH][dS][dH][dT][dA][PEG10′][PEG10′]K(Biotin) (not fully specified (bridges); printed as folate-hshta) [folate-hshta (SEQ ID NO:6) NTerm heterobiligand, Folate-hshta-PEG10-PEG10-K(Biotin)]: in assay [3], the fold greater affinity than folate itself is 30 fold. The EC50 turned out to be 0.33 nM in assay [4], 0.35 nM in assay [5], 0.18 nM in assay [6] and 0.065 nM in [7]. For the same molecule, the percentage of OVCAR3 cells binding in [8] was determined as 57%; in assay [9], 76.6%.

B1: Lys(PEG3-Folate)-deryt heterobiligand (peptide)
peptide: K[dD][dE][dR][dY][dT]
modifications: not fully specified (residue 1, C-terminus, bridges); also: macrocycle (click Pra/Az4 or amide variant), ends not placed
Regarding B1, in assay [7], the EC50 was 0.16 nM.

With Fol-[dH][dS][dH][dT][dA]K(FB) (not fully specified (residue 5, bridges)) [Compound #2, Fol-hshta-PEG3-Lys(FB)], the values for the Plasma % Bound (with human plasma proteins [10]; in assay [11]) were 43% and 20.2%, respectively.

B2: folate-kyeet Tz heterobiligand (peptide)
peptide: [dK][dY][dE][dE][dT][Lys(N3)]
modifications: triazole N-C; not fully specified (N-terminus); also: folate joined through PEG linker and Tz (triazole) attachment
Consider B2, for which the EC50 in assay [7] is 0.149 nM. For Fol-P[dH][dS][dH][dT][dA] (not fully specified (residue 1, C-terminus, bridges)) [Folate-Pro-hshta heterobiligand], the EC50 in assay [6] came to 0.9 nM. Turning to Fol-[dH][dS][dH][dT][dA]K(Butanoyl(4-(4-I-phenyl)))MVK(DOTA) (not fully specified (residue 5, bridges)) [Compound #1306, folate-hshta-Lys(IPBA)-M-V-Lys(DOTA) (SEQ ID NO:6)], the Plasma % Bound stood at 97.3% with human plasma proteins [10] and 97.1% in [11]. On to [Pra][dD][dE][dR][dY][dT][Lys(N3)] (triazole N-C) [deryt (SEQ ID NO:20) macrocyclic peptide ligand (PCC)], for which the EC50 in assay [7] was 10000 nM. Fol-[dH][dS][dH][dT][dA]K(DOTA)[PEG10′][PEG10′]K(Biotin) (not fully specified (some residues, bridges); printed as Folate-hshta-DOTA) [Folate-hshta-DOTA: folate-hshta with the tag Lys(DOTA)-PEG10-PEG10-Lys(Biotin)]: in assay [7], the EC50 stood at 0.098 nM.

B3: Compound #7327, folate-hshta-Gly-Phe-Lys(DOTA) (SEQ ID NO:6) (peptide)
peptide: [dH][dS][dH][dT][dA]GFK(DOTA)
modifications: not fully specified (residue 5, N-terminus, bridges); printed as folate-hshta-Gly-Phe-Lys(DOTA)
In the case of B3, the results for the Plasma % Bound (with human plasma proteins [10]; in assay [11]) were 40.3% and 40.9%, respectively.

B4: Compound #2809, folate-hshta-PEG3-Lys(MPBA)-Lys(DOTA) (SEQ ID NO:6) (peptide)
peptide: Fol-[dH][dS][dH][dT][dA]K(Butanoyl(4-(4-MePh)))K(DOTA)
modifications: not fully specified (residue 5, bridges); printed as folate-hshta-PEG3-Lys(MPBA)-Lys(DOTA)
B4: the Plasma % Bound with human plasma proteins [10] turned out to be 83.3%; in assay [11] it was 92.1%. Regarding [Pra][dH][dS][dH][dT][dA][Lys(N3)] (triazole N-C; also: further groups not given here) [hshta (SEQ ID NO:6) macrocyclic peptide ligand (PCC)], the EC50 was 2100 nM in assay [4], 3400 nM in [5] and 3920 nM in assay [7]. With {Fol-PEG7′}-[dH][dS][dH][dT][dA] (also: triazole macrocycle (Pra/Az4 click), ends not placed) [Folate-PEG7-hshta heterobiligand], the EC50 in assay [6] is 1 nM. Fol-[dH][dS][dH][dT][dA]K(Butanoyl(4-(4-MePh)))GFK([PEG3′-DOTA]) (not fully specified (residue 5, bridges)) [Compound #3302, Fol-hshta-Lys(4-MPBA)-Gly-Phe-Lys(PEG3-DOTA)]: the Plasma % Bound in the assay with human plasma proteins [10] is 94.9%; in assay [11] it was 96.5%. In the case of Fol-[dH][dS][dH][dT][dA]GFK(DOTA) (not fully specified (residue 5, bridges)) [Compound #6307, Fol-hshta-PEG3-Gly-Phe-Lys(DOTA)], the values for the Plasma % Bound (with human plasma proteins [10]; in assay [11]) were 41.3% and 40.6%, respectively.

B5: folate-hshta Tz heterobiligand (peptide)
peptide: [dH][dS][dH][dT][dA][Lys(N3)]
modifications: triazole N-C; not fully specified (N-terminus); also: folate joined through PEG linker and Tz (triazole) attachment
With B5, the EC50 in assay [7] came out at 0.107 nM.

As to Fol-[dH][dS][dH][dT][dA]GFK(AO) (not fully specified (residue 5, bridges); printed as Fol-hshta-Gly-Phe-Lys(AO)) [Compound #3303, Fol-hshta-Gly-Phe-Lys(AO)], the values for the Plasma % Bound (with human plasma proteins [12]; in [13]) were 81% and 75.5%, respectively.

B6: Pra(Az4-PEG3-folate)-deryt heterobiligand (peptide)
peptide: [dD][dE][dR][dY][dT][Lys(N3)]
modifications: triazole N-C; not fully specified (N-terminus); printed as Pra(Az4-PEG3-folate)-deryt; also: N-terminal Pra joined by Tz (triazole) linker to Az4-PEG3-folate
B6: the concentration for a half-maximal effect (EC50) in [7] is 0.27 nM. Fol-[dH][dS][dH][dT][dA]K(Butanoyl(4-(4-MePh)))[PEG10′][PEG10′]K(Biotin) (not fully specified (some residues, bridges); printed as Folate-hshta-MPBA) [Folate-hshta-MPBA: folate-hshta with the tag Lys(4-MPBA)-PEG10-PEG10-Lys(Biotin)]: in assay [7], the EC50 amounted to 0.11 nM. For Fol-[dH][dS][dH][dT][dA]K(Butanoyl(4-(4-I-phenyl)))GFK(DOTA) (not fully specified (residue 5, bridges)) [Compound #1307, folate-hshta-Lys(IPBA)-Gly-Phe-Lys(DOTA) (SEQ ID NO:6)], the Plasma % Bound was found to be 99.5% with human plasma proteins [10] and 99.6% in [11].

B7: DyLight650-labeled folate-hshta (SEQ ID NO:6) Nterm heterobiligand (peptide)
peptide: Fol-[dH][dS][dH][dT][dA]
modifications: not fully specified (C-terminus, bridges); also: DyLight 650 label, site not given here
Take B7: the percentage of positively stained cells after acid wash (flow cytometry) in assay [14] came to 54.2%.

For the molecule Fol-G[dH][dS][dH][dT][dA] (not fully specified (residue 1, C-terminus, bridges)) [Folate-Gly-hshta heterobiligand], the EC50 in [6] was 0.9 nM. In the case of [Pra][dK][dY][dE][dE][dT][Lys(N3)] (triazole N-C) [kyeet (SEQ ID NO:9) macrocyclic peptide ligand (PCC)], the EC50 in assay [7] is > 10000 nM. On to Fol-[dH][dS][dH][dT][dA]K(Butanoyl(4-(4-MePh)))GFK(DOTA) (not fully specified (residue 5, bridges)) [Compound #6305, folate-hshta-Lys(MPBA)-Gly-Phe-Lys(DOTA) (SEQ ID NO:6)], for which the Plasma % Bound worked out at 98.3% with human plasma proteins [10] and 96.3% in assay [11].

B8: Compound #1189, Fol-hshta-PEG3-Lys(DOTA) (peptide)
peptide: Fol-[dH][dS][dH][dT][dA]K(DOTA)
modifications: not fully specified (residue 5, bridges); printed as folate-hshta-PEG3-Lys(DOTA)
In the case of B8, the Plasma % Bound with human plasma proteins [10] amounted to 46%; in [11] it was 29.5%.

For [Pra][dD][dE][dR][dY][dT][Lys(N3)] (triazole N-C; also: conjugated to folate, attachment not said) [folate-deryt (SEQ ID NO:20) heterobiligand (construct not specified)], the EC50 in assay [6] is 0.28 nM.
